The results in this text go back to publication PMC3380618.

Data set [1] addresses EcoRV endonuclease wild type (UniProt P04390 2-245). The data set is described as follows: FRET.
The target in data set [2] is EcoRV K119A (UniProt P04390 2-245, K119A). The data set is described as follows: filter binding.

B1: FRET 14 bp GATATC (dsDNA)
DNA 1: AGAAGATATCTTGA
DNA 2: TCAAGATATCTTCT
As for B1, in data set [1], the binding result was “binds”.

B2: PMe-2 racemic (dsDNA)
DNA 1: TGTGTTGTAGGATATCCTACAGGT
DNA 2: ACCTGTAGGATATCCTACAACACA
modifications: racemic Rp,Sp methylphosphonate at P-2, symmetric in both strands
What is called Kd is the free concentration of one partner at which half of the binding sites on the other are occupied at equilibrium, for simple one-to-one binding. High values mean a looser complex, low ones a tighter complex. Consider B2, for which the affinity in data set [2], expressed as Kd, was 1.1 pM.
